How the values were obtained:
[1] = target: purified recombinant CD163 immobilized on a Biacore chip (human) (UniProt Q86VB7); assay: SPR, immobilized CD163, 10 mM EDTA
[2] = target: human CD163 on cells (human) (UniProt Q86VB7); assay: quantitative flow cytometry, whole blood, EDTA
[3] = target: human CD163 on cells (human) (UniProt Q86VB7); assay: quantitative flow cytometry, whole blood, citrate
[4] = target: human CD163 on cells (human) (UniProt Q86VB7); assay: quantitative flow cytometry, whole blood, heparin
[5] = target: human CD163 on cells (human) (UniProt Q86VB7); assay: flow cytometry, whole blood, EDTA as anticoagulant
[6] = target: human CD163 on cells (human) (UniProt Q86VB7); assay: flow cytometry, whole blood, citrate as anticoagulant
[7] = target: human CD163 on cells (human) (UniProt Q86VB7); assay: flow cytometry, whole blood, heparin as anticoagulant
[8] = target: human CD163 on cells (human) (UniProt Q86VB7); assay: flow cytometry, R-PE mAb, freshly drawn EDTA whole blood
[9] = target: human CD163 on cells (human) (UniProt Q86VB7); assay: flow cytometry, PE mAb, peripheral blood dendritic cells
[10] = target: human CD163 on cells (human) (UniProt Q86VB7); assay: flow cytometry, PBMC after density gradient centrifugation
[11] = target: human CD163 on cells (human) (UniProt Q86VB7); assay: flow cytometry, PE mAb, CD14-ILT3+ dendritic cells in whole blood
[12] = target: human CD163 on cells (human) (UniProt Q86VB7); assay: quantitative flow cytometry, Quantibrite PE beads, EDTA whole blood
[13] = target: human CD163 on cells (human) (UniProt Q86VB7); assay: flow cytometry, CD163low subset of peripheral blood dendritic cells
[14] = target: human CD163 on cells (human) (UniProt Q86VB7); assay: flow cytometry, CD163high subset of peripheral blood dendritic cells
[15] = target: human CD163 on cells (human) (UniProt Q86VB7); assay: flow cytometry, CD14+ILT3+HLA-DR+ monocytes stained positive for CD163
[16] = target: human CD163 on cells (human) (UniProt Q86VB7); assay: quantitative flow cytometry, PBMC after density gradient centrifugation
[17] = target: human CD163 on cells (human) (UniProt Q86VB7); assay: 125I-labelled mAb on stable CD163 transfected Flp-In CHO cells (1.23% on non-transfected cells)
[18] = target: human CD163 on cells (human) (UniProt Q86VB7); assay: 125I-labelled mAb on stable CD163 transfected Flp-In CHO cells (0.97% on non-transfected cells)
[19] = target: purified recombinant CD163 immobilized on a Biacore chip (human) (UniProt Q86VB7); assay: SPR, immobilized CD163, 2 mM free Ca2+
[20] = target: human CD163 on cells (human) (UniProt Q86VB7); assay: 125I-labelled mAb on stable CD163 transfected Flp-In CHO cells (1.47% on non-transfected cells)
rat CD163 on cells (rat) [21] = assay: flow cytometry, rat peritoneal macrophages, ED2-FITC
rat CD163 on cells (rat) [22] = assay: flow cytometry of rat peritoneal macrophages, anti-rat CD163-FITC (ED2) against anti-rat CD172a-PE (ED9)
rat CD163 on cells (rat) [23] = assay: cell-based or functional assay
rat CD163 on cells (rat) [24] = assay: flow cytometry of rat peritoneal macrophages, negative control staining with IgG-FITC
[25] = target: human CD163 on cells (human) (UniProt Q86VB7); assay: quantitative flow cytometry, background staining, EDTA whole blood
[26] = target: human CD163 on cells (human) (UniProt Q86VB7); assay: flow cytometry on peripheral blood dendritic cells, negative staining control

Chain of human CD163 on cells (human) (Q86VB7 42-1156): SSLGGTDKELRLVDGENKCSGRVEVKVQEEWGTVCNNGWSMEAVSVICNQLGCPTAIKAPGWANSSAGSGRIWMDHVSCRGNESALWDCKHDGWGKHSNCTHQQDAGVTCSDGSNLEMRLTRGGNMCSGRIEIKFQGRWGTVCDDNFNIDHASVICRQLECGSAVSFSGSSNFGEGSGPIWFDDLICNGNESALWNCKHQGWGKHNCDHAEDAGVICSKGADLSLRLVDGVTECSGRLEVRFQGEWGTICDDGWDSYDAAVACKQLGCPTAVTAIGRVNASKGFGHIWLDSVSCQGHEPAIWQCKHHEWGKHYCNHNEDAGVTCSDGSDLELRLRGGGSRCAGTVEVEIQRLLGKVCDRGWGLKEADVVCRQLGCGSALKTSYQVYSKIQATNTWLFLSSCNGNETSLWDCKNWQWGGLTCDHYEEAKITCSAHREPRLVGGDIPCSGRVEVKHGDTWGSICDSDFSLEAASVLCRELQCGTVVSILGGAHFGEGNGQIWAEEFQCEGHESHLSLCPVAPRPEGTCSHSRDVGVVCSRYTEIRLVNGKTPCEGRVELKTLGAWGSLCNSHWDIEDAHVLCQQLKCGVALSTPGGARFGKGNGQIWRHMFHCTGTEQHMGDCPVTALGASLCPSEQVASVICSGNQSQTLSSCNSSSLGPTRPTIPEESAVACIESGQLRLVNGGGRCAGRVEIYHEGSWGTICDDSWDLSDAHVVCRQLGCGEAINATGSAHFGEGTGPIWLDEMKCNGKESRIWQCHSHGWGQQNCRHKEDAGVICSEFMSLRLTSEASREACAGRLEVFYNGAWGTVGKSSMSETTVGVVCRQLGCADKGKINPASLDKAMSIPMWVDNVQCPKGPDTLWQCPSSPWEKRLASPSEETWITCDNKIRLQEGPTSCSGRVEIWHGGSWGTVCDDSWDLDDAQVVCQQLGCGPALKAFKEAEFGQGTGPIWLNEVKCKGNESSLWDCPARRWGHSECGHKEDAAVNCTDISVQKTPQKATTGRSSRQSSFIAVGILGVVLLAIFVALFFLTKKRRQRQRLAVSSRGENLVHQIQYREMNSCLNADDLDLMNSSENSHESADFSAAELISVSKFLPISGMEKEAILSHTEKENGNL
Chain of purified recombinant CD163 immobilized on a Biacore chip (human) (Q86VB7 42-1050 limits assumed): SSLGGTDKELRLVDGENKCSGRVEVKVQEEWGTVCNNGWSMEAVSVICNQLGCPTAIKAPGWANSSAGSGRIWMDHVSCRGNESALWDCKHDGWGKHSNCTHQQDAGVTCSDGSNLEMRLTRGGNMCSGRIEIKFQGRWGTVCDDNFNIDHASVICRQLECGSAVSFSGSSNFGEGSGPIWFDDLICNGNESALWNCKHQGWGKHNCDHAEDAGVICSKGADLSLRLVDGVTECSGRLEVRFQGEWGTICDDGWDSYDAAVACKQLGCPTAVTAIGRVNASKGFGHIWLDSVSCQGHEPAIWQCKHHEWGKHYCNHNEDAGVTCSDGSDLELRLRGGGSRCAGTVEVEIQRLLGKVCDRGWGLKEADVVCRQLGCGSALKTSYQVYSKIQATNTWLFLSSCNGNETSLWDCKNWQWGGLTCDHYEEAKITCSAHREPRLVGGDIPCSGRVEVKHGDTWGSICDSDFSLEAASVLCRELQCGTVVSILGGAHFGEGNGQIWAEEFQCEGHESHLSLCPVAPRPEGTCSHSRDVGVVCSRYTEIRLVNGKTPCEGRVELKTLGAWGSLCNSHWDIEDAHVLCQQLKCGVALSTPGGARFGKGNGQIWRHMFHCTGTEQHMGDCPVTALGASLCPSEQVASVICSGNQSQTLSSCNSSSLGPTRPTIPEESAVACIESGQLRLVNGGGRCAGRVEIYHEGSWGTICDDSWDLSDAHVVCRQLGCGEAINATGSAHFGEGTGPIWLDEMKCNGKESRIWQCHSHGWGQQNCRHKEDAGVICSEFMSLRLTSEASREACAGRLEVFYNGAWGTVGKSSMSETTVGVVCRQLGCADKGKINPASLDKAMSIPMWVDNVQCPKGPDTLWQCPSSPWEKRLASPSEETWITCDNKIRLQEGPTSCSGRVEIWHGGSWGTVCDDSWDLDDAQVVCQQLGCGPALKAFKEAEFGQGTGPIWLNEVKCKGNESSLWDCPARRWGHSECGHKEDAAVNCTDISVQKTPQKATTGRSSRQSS

Row | density of CD163 receptors per monocyte (PE antibodies bound per cell) [2] [per monocyte] | density of CD163 receptors per monocyte (PE antibodies bound per cell) [3] [per monocyte] | density of CD163 receptors per monocyte (PE antibodies bound per cell) [4] [per monocyte] | fraction of CD14+ monocytes stained positive for CD163 [5] [%] | fraction of CD14+ monocytes stained positive for CD163 [6] [%] | fraction of CD14+ monocytes stained positive for CD163 [7] [%] | fraction of CD14+ monocytes stained positive for CD163 [8] [%] | fraction of CD14+ monocytes stained positive for CD163 [10] [%] | density of CD163 receptors per monocyte (PE antibodies bound per cell) [12] [per monocyte] | density of CD163 receptors per monocyte (PE antibodies bound per cell) [16] [per monocyte] | Substance | other results
1 | 1030 | 1150 | 58.3 | 63 | 64.4 | 0.82 | 63 | 1.26 | 1030 | 108 | Anti-CD163 (GHI/61) (antibody) | Kd [1]: 29 nM; MFI [9]: 22.3; fraction of peripheral blood dendritic cells recognized [11]: 10.5%; MFI [13]: 4.2 MFI; MFI [14]: 34.6 MFI; percent of cells stained positive [15]: 88%
2 | – | – | – | – | – | – | – | – | – | – | Anti-CD163 (GHI/61) (antibody, non-transfected cells) | percentage of cell-associated radioactivity [17]: 1.23%
3 | 1760 | 1990 | 3020 | 75.9 | 74.7 | 63 | 75.9 | 54.4 | 1650 | 837 | Anti-CD163 (R-20) (antibody) | percentage of cell-associated radioactivity [18]: 19%
4 | 86 | 207 | 210 | 0.33 | 12.5 | 3.33 | 0.33 | 2.5 | 101 | 132 | Anti-CD163 (RM3/1) (antibody) | Kd [19]: 0.6 nM; percentage of cell-associated radioactivity [20]: 7.77%
5 | – | – | – | – | – | – | – | – | – | – | Anti-rat CD163 ED2 (antibody) | fraction of peritoneal macrophages CD163 positive (rat CD163 on cells (rat) [21]): 42%; % of cells in the lower right quadrant (CD172a PE negative, CD163 FITC positive) (rat CD163 on cells (rat) [22]): 0.01%; % of cells in the upper right quadrant (CD172a PE positive, CD163 FITC positive) (rat CD163 on cells (rat) [22]): 42.9%
6 | – | – | – | – | – | – | – | – | – | – | ED2-MVCP-dexamethasone (antibody) | suppressive effect on LPS mediated TNFα in vitro, rat spleen cells, against free dexamethasone (rat CD163 on cells (rat) [23]): 3 fold
7 | – | – | – | – | – | – | – | – | – | – | ED2-NHS-dexamethasone (antibody) | level of TNFα suppression after 15 minutes of incubation, LPS stimulated rat spleen cells, against free dexamethasone (rat CD163 on cells (rat) [23]): 2 fold; suppressive effect on LPS mediated TNFα in vitro, rat spleen cells, against free dexamethasone (rat CD163 on cells (rat) [23]): 2 fold
8 | – | – | – | – | – | – | – | – | – | – | IgG-FITC (antibody) | % of cells in the lower right quadrant (IgG FITC positive) (rat CD163 on cells (rat) [24]): 0.41%; % of cells in the upper right quadrant (IgG FITC positive, FL2 positive) (rat CD163 on cells (rat) [24]): 0.06%
9 | – | – | – | – | – | – | – | – | – | – | R-PE-conjugated Mouse IgG1, k isotype control (MCG1) (antibody) | density of CD163 receptors per monocyte (PE antibodies bound per cell) [25]: 94 per monocyte; MFI [26]: 1.23 MFI
